Assay results as given in paper PMC8238519 (Biochemical Journal, 2021).

B1: pea plastocyanin (natural protein, pea (Pisum sativum), UniProt P16002 70-168, looked up)
chain: VEVLLGASDGGLAFVPSSLEVSAGETIVFKNNAGFPHNVVFDEDEIPAGVDASKISMPEEDLLNAPGETYSVKLDAKGTYKFYCSPHQGAGMVGQVTVN

Assays:
[1] = target: Chlamydomonas reinhardtii photosystem I PsaA-Asp648Arg (Chlamydomonas reinhardtii) (UniProt P12154)
[2] = target: pea PsaA (Pisum sativum (pea), UniProt P05310 16-758); assay: cryo-EM structure
[3] = target: pea PsaB (Pisum sativum (pea), UniProt P05311 13-734); assay: cryo-EM structure
Sequence of pea PsaB (P05311 13-734): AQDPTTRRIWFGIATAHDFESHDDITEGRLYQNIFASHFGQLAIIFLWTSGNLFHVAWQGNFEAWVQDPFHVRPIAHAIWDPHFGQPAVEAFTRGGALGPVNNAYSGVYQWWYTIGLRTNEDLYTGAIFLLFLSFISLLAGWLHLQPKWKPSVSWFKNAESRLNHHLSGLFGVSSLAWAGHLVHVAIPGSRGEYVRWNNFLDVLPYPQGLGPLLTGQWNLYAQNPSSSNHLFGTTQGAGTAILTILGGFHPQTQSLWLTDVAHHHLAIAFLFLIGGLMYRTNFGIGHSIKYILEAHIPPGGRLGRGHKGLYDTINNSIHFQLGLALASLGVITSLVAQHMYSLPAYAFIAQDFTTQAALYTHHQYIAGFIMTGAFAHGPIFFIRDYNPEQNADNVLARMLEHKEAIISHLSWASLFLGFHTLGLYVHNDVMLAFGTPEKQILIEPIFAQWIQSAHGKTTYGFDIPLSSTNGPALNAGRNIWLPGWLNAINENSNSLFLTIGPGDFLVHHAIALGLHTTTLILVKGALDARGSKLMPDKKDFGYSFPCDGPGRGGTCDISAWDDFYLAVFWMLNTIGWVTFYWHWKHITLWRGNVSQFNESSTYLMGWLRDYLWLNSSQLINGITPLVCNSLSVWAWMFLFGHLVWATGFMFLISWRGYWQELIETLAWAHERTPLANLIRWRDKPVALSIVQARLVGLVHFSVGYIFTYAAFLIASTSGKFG

Sequence of pea PsaA (P05310 16-758): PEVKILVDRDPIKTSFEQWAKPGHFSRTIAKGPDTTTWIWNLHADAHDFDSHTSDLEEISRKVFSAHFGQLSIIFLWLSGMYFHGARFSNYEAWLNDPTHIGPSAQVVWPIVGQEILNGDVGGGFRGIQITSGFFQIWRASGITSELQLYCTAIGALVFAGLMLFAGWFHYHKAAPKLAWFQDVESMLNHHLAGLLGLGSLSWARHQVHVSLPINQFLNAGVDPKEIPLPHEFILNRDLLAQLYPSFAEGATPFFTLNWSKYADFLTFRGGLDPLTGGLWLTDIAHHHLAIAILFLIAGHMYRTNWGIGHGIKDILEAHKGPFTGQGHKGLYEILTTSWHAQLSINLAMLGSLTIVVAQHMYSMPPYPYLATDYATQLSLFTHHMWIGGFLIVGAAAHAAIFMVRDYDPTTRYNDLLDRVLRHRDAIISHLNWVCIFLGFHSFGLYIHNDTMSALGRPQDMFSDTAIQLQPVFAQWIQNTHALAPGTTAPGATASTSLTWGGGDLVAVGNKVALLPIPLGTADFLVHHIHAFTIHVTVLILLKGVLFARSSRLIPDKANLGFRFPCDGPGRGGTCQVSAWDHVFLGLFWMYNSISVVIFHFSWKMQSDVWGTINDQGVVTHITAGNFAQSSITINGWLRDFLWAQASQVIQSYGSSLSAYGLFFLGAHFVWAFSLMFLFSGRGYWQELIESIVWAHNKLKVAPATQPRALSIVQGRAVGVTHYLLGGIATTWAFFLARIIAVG

Molecule | second-order rate constant of P700+ reduction by Pc (single flash absorption) [1] | binding result [2] | binding result [3]
Chlamydomonas reinhardtii plastocyanin (natural protein) | 6.54e+07 M⁻¹ s⁻¹ | – | –
B1 | – | binds | binds
